Data published in patent publication US20190367619A1 (ARGENX, published 2019).
Values belong to the binder of their own block, whether it stands above or below them.

Assays:
[1] = molecular target: T1, TEV-cleaved wild-type recombinant human galectin-10 (soluble, in Fab complexes, or as recombinant galectin-10 … (human, UniProt Q05315 1-142)); test: cell-based or functional assay
T1 sequence: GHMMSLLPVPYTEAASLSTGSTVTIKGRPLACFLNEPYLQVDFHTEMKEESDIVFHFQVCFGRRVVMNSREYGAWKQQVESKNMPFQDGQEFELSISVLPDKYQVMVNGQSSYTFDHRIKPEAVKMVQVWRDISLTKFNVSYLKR

[2] = molecular target: T2, human galectin-10-His (recombinant human galectin-10 with TEV-cleavable N-terminal His-tag) (human); test: BLI tandem on galectin-10-His; competitor: saturating 6A05 mIgG1 (10 ug/mL)
T2 construct: SEC-MALLS: dimer in solution; also called Gal10-His; humanGal10-His
T2 chain: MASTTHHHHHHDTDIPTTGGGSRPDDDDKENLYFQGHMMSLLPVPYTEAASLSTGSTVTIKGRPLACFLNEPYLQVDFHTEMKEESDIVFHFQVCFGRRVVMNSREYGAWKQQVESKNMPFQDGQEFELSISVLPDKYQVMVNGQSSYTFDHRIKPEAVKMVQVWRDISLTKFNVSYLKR
Protocol: (§1) In order to identify the galectin-10 binding sites of the different clones, an epitope mapping method (TANDEM), using the BLI technology, was established. Briefly, the galectin-10-His was captured on anti-HIS 1K sensor tips, before incubation with an excess of one antibody (called the “saturating” antibody) then directly transferred to a solution containing the “competitor” antibody at a suboptimal concentration. If the “saturating” and the competitor antibody bind to the same binding sites, no binding of “competitor” will be detected (expressed in nm shift).

[3] = molecular target: T2, human galectin-10-His (recombinant …); test: BLI tandem on galectin-10-His; competitor: saturating 6A08 mIgG1 (10 ug/mL)
Protocol: as §1

[4] = molecular target: T2, human galectin-10-His (recombinant …); test: BLI tandem on galectin-10-His; competitor: saturating 1C09 mIgG1 (10 ug/mL)
Protocol: as §1

[5] = molecular target: T2, human galectin-10-His (recombinant …); test: ELISA, mouse IgG1 on coated galectin-10-His (0.2 ug/mL)
Protocol: In a similar setup to that used during the characterization of the scFv-human Fc molecules, the relative binding affinities of the 10 mouse IgG1 antibodies were analyzed by ELISA. A Maxisorp plate was coated overnight with 0.2 μg/mL of galectin-10-His. Then a serial dilution of each clone (from 100 nM, dilution 1/4, 12 points of dilutions) was incubated on coated galectin-10. After several washing steps, detection of the bound mouse IgG1 was carried out with an anti-mouse Fc-HRP antibody. Absorbance was measured at 450 nm (reference at 620 nm) with Tecan instrument. A mouse IgG1 isotype control was used as negative control. A polyclonal anti-galectin-10 antibody was used as positive control for the coating of galectin-10. The raw data (OD values) were plotted on GraphPad Prism 7.01. The EC50 values for each antibody, calculated with a non-linear regression (log(agonist) vs. response Variable slope (four parameters)), are reported in Table 7 below.

[6] = molecular target: T2, human galectin-10-His (recombinant …); test: SPR Biacore T3000, mouse IgG1 captured by anti-mouse Fc, galectin-10-His as analyte
Protocol: The binding capacity of the mouse IgG1 antibodies to galectin-10 was analyzed on Biacore T3000. For this purpose, a capture approach was set up. A CM5 Chip was coated with polyclonal anti-mouse Fc at 8000 RU, then a fixed concentration of the mouse IgG1 antibody panel (1.5 μg/mL), diluted in HBS-EP pH7.4, was captured to reach a binding signal around 150 RU. Finally, a serial dilution of galectin-10-His (serial dilution, 1 over 2 from 5 μg/mL) diluted in HBS-EP pH7.4 was injected. Raw data were analyzed via BIA evaluation software with a blank subtraction (4-3). The kd/KD and Rmax of each mAb to galectin-10-His was determined using the Fit Kinetics simultaneous ka/kd/Binding with mass transfer/Local Rmax on BIA evaluation software.

[7] = molecular target: T2, human galectin-10-His (recombinant …); test: BLI tandem on galectin-10-His; competitor: saturating 6F06 mIgG1 (10 ug/mL)
Protocol: as §1

[8] = molecular target: T2, human galectin-10-His (recombinant …); test: BLI tandem on galectin-10-His; competitor: saturating 2C07 mIgG1 (10 ug/mL)
Protocol: as §1

[9] = molecular target: T2, human galectin-10-His (recombinant …); test: BLI tandem on galectin-10-His; competitor: saturating 4E08 mIgG1 (10 ug/mL)
Protocol: as §1

[10] = molecular target: T2, human galectin-10-His (recombinant …); test: BLI tandem on galectin-10-His; competitor: saturating 2F09 mIgG1 (10 ug/mL)
Protocol: as §1

[11] = molecular target: T2, human galectin-10-His (recombinant …); test: BLI tandem on galectin-10-His; competitor: saturating 1D11 mIgG1 (10 ug/mL)
Protocol: as §1

[12] = molecular target: T2, human galectin-10-His (recombinant …); test: BLI tandem on galectin-10-His; competitor: saturating 6E10 mIgG1 (10 ug/mL)
Protocol: as §1

[13] = molecular target: T2, human galectin-10-His (recombinant …); test: BLI tandem on galectin-10-His; isotype control as saturating antibody (10 ug/mL)
Protocol: as §1

[14] = molecular target: T2, human galectin-10-His (recombinant …); test: BLI tandem on galectin-10-His; competitor: saturating 6B06 mIgG1 (10 ug/mL)
Protocol: as §1

[15] = molecular target: T3, recombinant human galectin-10, TEV-cleaved (human, UniProt Q05315 1-142); test: cell-based or functional assay
T3 sequence: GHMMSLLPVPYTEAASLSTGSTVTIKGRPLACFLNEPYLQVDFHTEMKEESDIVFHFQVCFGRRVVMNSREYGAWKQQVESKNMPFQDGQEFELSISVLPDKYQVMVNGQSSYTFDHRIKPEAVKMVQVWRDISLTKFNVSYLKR

[16] = molecular target: T4, human galectin-10-His (human); test: ELISA, coated antigen 0.5 ug/mL
T4 construct: The last M of the tag may be Met1 of galectin-10; also called humanGal10-His; hGal10
T4 chain: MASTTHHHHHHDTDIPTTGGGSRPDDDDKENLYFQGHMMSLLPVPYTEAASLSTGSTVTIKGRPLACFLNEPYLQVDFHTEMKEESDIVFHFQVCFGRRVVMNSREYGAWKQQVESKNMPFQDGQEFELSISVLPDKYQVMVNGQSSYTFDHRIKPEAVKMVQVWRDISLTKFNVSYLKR
Protocol: (§2) In a similar setup to that used during the characterization of the scFv-human Fc molecules, the relative binding properties of the 7 mouse IgG1 antibodies were analyzed by ELISA. A Maxisorp plate was coated overnight with 0.5 μg/mL of human or cynomolgus WGS or YRT isoform of galectin-10-His. Then a serial dilution of each clone (from 100 nM, dilution 1/4, 12 points of dilutions) was incubated on coated galectin-10. After several washing steps, detection of the bound mouse IgG1 was carried out with an anti-mouse Fc-HRP antibody (DAMPO, Jackson ImmunoResearch, Catalog 715-035-150). Absorbance was measured at 450 nm (reference at 620 nm) with Tecan instrument. The raw data (OD values) were plotted on GraphPad Prism 7.01. The EC50 values for each antibody, calculated with a non-linear regression (log(agonist) vs. response Variable slope (four parameters)), are shown in the table below. Antibody 1D11 from the previous panel was included for comparison.

[17] = molecular target: T5, cynomolgus galectin-10-His, WGS isoform (cynomolgus); test: ELISA, coated antigen 0.5 ug/mL
T5 construct: also called cynoGal10-WGS; not shown: His tag
T5 chain: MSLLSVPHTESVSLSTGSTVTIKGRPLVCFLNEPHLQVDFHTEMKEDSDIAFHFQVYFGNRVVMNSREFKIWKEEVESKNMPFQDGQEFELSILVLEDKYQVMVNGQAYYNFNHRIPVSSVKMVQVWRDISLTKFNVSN
Protocol: as §2

[18] = molecular target: T3, recombinant human galectin-10, …; test: cell-based or functional assay; remark: listed apart in the source
[19] = molecular target: T4, human galectin-10-His; test: SPR Biacore T3000, mouse IgG1 captured
Protocol: The binding capacity of the mouse IgG1 antibody panel to galectin-10 was analysed on Biacore T3000. For this purpose, a capture approach was used, where a fixed concentration (1.5 μg/mL) of the mouse IgG1 clone was captured by polyclonal anti-mouse Fc antibodies immobilized on CM5 Chip to reach a binding signal around 150 RU. Then a serial dilution of human and cynomolgus WGS isoform of galectin-10-His (serial dilution, 1 over 2 from 5 μg/mL) diluted in HBS-EP pH7.4 was injected. Raw data were analysed via BIA evaluation software with a blank subtraction. The kd/KD and Rmax of each mAbs to galectin-10-His was determined using the Fit Kinetics simultaneous ka/kd/Binding with mass transfer/Local Rmax on BIA evaluation software.

[20] = molecular target: T4, human galectin-10-His; test: ELISA, galectin-10-His coated at 1 ug/mL, Fab
Protocol: The binding capacity of the lead anti-galectin-10 Fabs was tested by binding ELISA. Briefly, a Maxisorp plate was coated overnight with 1 μg/mL of human galectin-10-His. Then a serial dilution of each clone (from 4 μM, dilution 1/4, 12 points of dilutions) was incubated on coated galectin-10. After several washing steps, detection of the bound Fab was carried out with an anti-human IgG Fab specific-peroxidase. Absorbance was measured at 450 nm (reference at 620 nm) with Tecan instrument.

B4: 11F12 Fab (Fab, V domains shown)
VH: QVQLQESGGGLVQPGGSLRLSCAASGFTFSTNYMNWVRQAPGKGLEWVSGITSGGGRTYYADSVKGRFTISRDNAKNTLYLQMNSLKPEDTALYYCARTDHAWLDAWGQGTLVTVSS
VL: HSAVTQPPSVSGTLGKTVTISCAGTSSDVGYGNYVSWYQHLPGTAPKLLIYAVSTRASGVPDRFSGSKSGNTASLTISGLQSEDEGDYYCASYSVRNNVVFGGGTRLTVL
notes: Fab with human CH1 (including part of the hinge region) and human lambda constant domain; also called 11F12 hFab
50% crystal dissolution (min), 50 uM [18]: 62 min
90% crystal dissolution (min), 50 uM [18]: > 120 min
Bmax [20]: 1.38 OD
EC50 [20]: 22400 pM

B5: 1D11 Fab (Fab, V domains shown)
VH: QVQLVESGGGLVQPGGSLRLSCAASGFTFDDYAMSWVRQAPGKGLEWVSGISWNGGSTYYAESMKGRFTISRDNAKNTLYLQMNSLKSEDTAVYYCAKDRNLGYRLGYPYDYWGQGTQVTVSS
VL: QSVLTQPPSVSGSPGETVTISCAGTSSDVGYGNYVSWYQQLPGMAPRLLIYEVNKRASGITDRFSGSKSGNTASLTISGLQSEDEGDYYCASYRSSNNAVFGGGTHLTVL
notes: Fab with human CH1 (including part of the hinge region) and human lambda constant domain; also called Fab-1D11; 1D11 hFab
50% crystal dissolution (min), 50 uM [18]: 33.4 min
90% crystal dissolution (min), 50 uM [18]: 97.8 min
Bmax [20]: 1.59 OD
EC50 [20]: 1400 pM

Now from value to binder, other results behind:

100% Solubilization of CLC (Conc uM) [1]: 10.7 µM
binding signal (nm) [2]: 0.12 nm
binding signal (nm) [3]: 0.07 nm
binding signal (nm) [4]: 0.04 nm
Bmax [5]: 3.29 OD
EC50 [5]: 50 pM
Kd [6]: 300 pM
koff [6]: 0.00034 s⁻¹
binding signal (nm) [7]: 0.06 nm
binding signal (nm) [8]: 0.05 nm
binding signal (nm) [9]: 0.1 nm
binding signal (nm) [10]: 0.03 nm
binding signal (nm) [11]: 0.12 nm
binding signal (nm) [12]: 0.03 nm
binding signal (nm) [13]: 1.14 nm
binding signal (nm) [14]: 0.03 nm
B1: 2F09 mouse IgG1 (antibody, V domains shown)
VH: QVQVQESGPGLVKPSQTLSLTCTVSGGSITTNYFYWSWIRQSPGKGLEWIGAIAYSGRTYYSPSLKSRTSISRDTSNNQFTLQLSSVTPEDTAVYYCARGPKGLASYYDYWGQGTQVTVSS
VL: SSALTQPSAVSVSLGQTARITCQGGNFGYYYVSWYQQKPGQAPVLVIYRDSGRPSGIPERFSGSSSGDTATLTISGAQAEDEADYYCQSGSSSDNTVFGGGTHLTVL
notes: VH on mouse IgG1 heavy chain constant domains (CH1-CH2-CH3), VL on mouse lambda light chain constant domain; also called 2F09 mIgG1

50% dissolution (min) of CLCs, antibody 50 uM [15]: 30.1 min
90% dissolution (min) of CLCs, antibody 50 uM [15]: 56.7 min
EC50 [16]: 100 pM
OD values [16]: 2 OD
OD values [17]: 0.05 OD
50% crystal dissolution (min), 50 uM [18]: 100 min
90% crystal dissolution (min), 50 uM [18]: > 120 min
Kd [19]: 700 pM
koff [19]: 0.00931 s⁻¹
kon [19]: 1.27e+07 M⁻¹ s⁻¹
B2: 1D11 mouse IgG1 (antibody, V domains shown)
VH: QVQLVESGGGLVQPGGSLRLSCAASGFTFDDYAMSWVRQAPGKGLEWVSGISWNGGSTYYAESMKGRFTISRDNAKNTLYLQMNSLKSEDTAVYYCAKDRNLGYRLGYPYDYWGQGTQVTVSS
VL: QSVLTQPPSVSGSPGETVTISCAGTSSDVGYGNYVSWYQQLPGMAPRLLIYEVNKRASGITDRFSGSKSGNTASLTISGLQSEDEGDYYCASYRSSNNAVFGGGTHLTVL
notes: Llama VH and VL on mouse IgG1 heavy chain constant domains (CH1-CH2-CH3) and mouse lambda light chain constant domain; also called 1D011; 1D11 mIgG1
binding result [17]: no binding (tested: serial dilution from 100 nM)

50% crystal dissolution (min), 50 uM [18]: 77.9 min
90% crystal dissolution (min), 50 uM [18]: > 120 min
Bmax [20]: 0.46 OD
EC50 [20]: 81400 pM
B3: 11F02 Fab (Fab, V domains shown)
VH: ELQVVESGGGLVQPGGSLRLSCAASGFTFSTNYMNWVRQAPGKGLEWVSGITSHGARTYYADSVKGRFTISRDNSKNTLYLQMNSLKPEDTALYYCARTDHASLDAWGQGTLVTVSS
VL: QTVVTQEPSLSVSPGGTVTLTCGLSSGSVTSSNYPGWYQQKPGQAPRTLIYNTNSRYSGVPNRFSGSISGNKAALTITGAQPEDEADYYCALYMGSSSYNTVFGGGTHLTVL
notes: Fab with human CH1 (including part of the hinge region) and human lambda constant domain; also called 11F02 hFab
